Experimental data published in the supplement of paper PMC9170038.

System: MS2 coat protein
Assay: apparent KD of MS2 coat protein; designed switch direction (-1 OFF switch, 1 ON switch): -1; higher = weaker reporter binding
Outline: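 Three titration conditions were used: no input, 200 uM small-molecule ligand, and an oligonucleotide input. In each, SNAP-549-labelled MS2 coat protein was raised from 0.7 or 1.5 nM, doubling, to 3 µM over designed RNA switches transcribed on Illumina chips by stalled E. coli RNA polymerase. Curve fits of normalised cluster fluorescence gave values whose per-design median over clusters is the apparent KD.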

[1] = input ligand: microRNA oligo, concentration not stated
[2] = Eterna round: R95, input ligand: microRNA oligo, concentration not stated
[3] = Eterna round: R95, input ligand: FMN 200 uM
[4] = Eterna round: R95, input ligand: none

Row | Sequence | apparent KD of MS2 coat protein (input ligand: FMN 200 uM) | apparent KD of MS2 coat protein [1] | apparent KD of MS2 coat protein (input ligand: none) | apparent KD of MS2 coat protein [2] | apparent KD of MS2 coat protein [3] | apparent KD of MS2 coat protein [4]
1 | AUUAUAAAUGUAGGAUAUCUGCACGUGUAGUGCAGAGAAGGACAUGAGGAUCACCCAUGUAGAUCAAUAAUAAUUAAUUUAAUU [ENG1/5-B3] (Eterna round: R96, puzzle: Exclusion NG 1) | 223 nM | 33.4 nM | 49.2 nM | – | – | –
2 | CUUUUGUGAGGAUAUCAGUAGUAAAUAAAUAAAAUUUCUACUGAGAAGGCACAUGAGGAUCACCCAUGUUCCUC [salish99_ex3_r3_085] (puzzle: Exclusion 4) | – | – | – | 36.3 nM | – | –
3 | CGGGAGGGACAAGCUUUUUGCACGUCUGUUAUUGAUGCUACAUGAGGAUCACCCAUGUUUAGGGUGUGUGAGGAUGG [JR_SV3TOV2_Sub052] (puzzle: Sensor v3, turn-off variant 2) | – | – | – | 239 nM | 437 nM | 571 nM
4 | AUUUUAAUAUAGGAUAUCGAAUUUAUUAAUUAUCGAGAAGGAUAAACAUGAGGAUCACCCAUGUGGUAUCAUGG [Mat - Exclusion 6 - JL Mod - D38] (puzzle: Exclusion 6) | – | – | – | 226 nM | – | –
5 | CUUUUGUGAGGAUAUCAGUAUUAAAUAAAUAAAAUUACUACUGAGAAGGCACAUGAGGAUCACCCAUGUUCCUC [salish99_ex3_r3_074] (puzzle: Exclusion 4) | – | – | – | 37.5 nM | – | –
6 | AAUACCGGUCUGCCUAAAGACAUGAGGAUCACCCAUGUCUGAUUCUCAACAGGCCUUUUGCUUCUCUUAACUACACA [Vetilage] (puzzle: Sensor v3, turn-off variant 1) | – | – | – | 23.1 nM | 13.9 nM | 12.6 nM
7 | AAGAAACAUGAGGAUCACCCAUGUGAGGAUAUGAUCAAGAAAAGAAAAGAAAGAAGAGUCAGAAGGCACAAAGG [salish99-ex1_r3_065] (puzzle: Exclusion 1) | – | – | – | 291 nM | 282 nM | 418 nM
8 | AGCCGGUCGUGAGGAUAUUACAUGAGGAUCACCCAUGUCGACGGGCUACGGGCGGUCGGCUCGUGUGAGAAGGCGCGCCCGGAA [Tibibiza] (Eterna round: R96, puzzle: Exclusion NG 2) | 17.3 nM | 8.33 nM | 17.6 nM | – | – | –
9 | AAAUCGUGAGGAUAUCCAAUAUAUGACAUGAGGAUCACCCAUGUUUCCACUCGUACCUCCGGAGAAGGCACAGUUA [Ex5 #73] (Eterna round: R97, puzzle: Exclusion 5) | 24.7 nM | – | 26.3 nM | – | – | –
10 | AAAUAGCAUGAGGAUAUCGAAUUAUAUAUAGUACGAGAAGGCAUGACAUGAGGAUCACCCAUGUUUUGUUGGGA [EX6 #1] (Eterna round: R97, puzzle: Exclusion 6) | 124 nM | – | 57.5 nM | – | – | –
11 | GCAGGAUAAGUGAGGAUAUACCUAUGGAUACAUAGGUAGAAGGUACAUGAGGAUCACCCAUGUUCCUUACCUGC [Fiskers BMX 4 - 65] (puzzle: Brourd's mod of Exclusion 4) | – | – | – | 11.7 nM | – | –
12 | CGCAUGUGAGGAUAUUAGUAGUAGUCAGAAAAGACUAUUACUGAGAAGGUACAUGAGGAUCACCCAUGUAUCCG [Mat - Exclusion 4 - Eli Mod - D46] (Eterna round: R97, puzzle: Exclusion 4) | 25.7 nM | – | 13.9 nM | – | – | –
13 | CCGAUCAGUGUCAGGAUAUCUACAGGACUGCCUCGAGAGAAGGGACAUGAGGAUCACCCAUGUACCCGGGCAAG [BmEX4 B.2] (Eterna round: R97, puzzle: Brourd's mod of Exclusion 4) | 15 nM | – | 12.8 nM | – | – | –
14 | GAUAAACAUGAGGAUCACCCAUGUGAGGAUAUGCGUACGUUGUCCGUAGGCGACGUGCGCAGAAGGCGCAAGGU [Mat - Mod of JL D99] (puzzle: Exclusion 1) | – | – | – | 73 nM | – | –
15 | CUAAAUCAUGUAGGAUAUGCGUGGCGAAGCUAUGCAGAAGGACAUGAGGAUCACCCAUGUUCUUCCGUCUGCGUACAGACGGAA [JL ENG1 1.18] (Eterna round: R96, puzzle: Exclusion NG 1) | 316 nM | 28.7 nM | 38 nM | – | – | –
16 | CUGUGCACGCUGCGGUCCUACAUGAGGAUCACCCAUGUGGUCUGGUGGCGUGGGUCACCGGACUUGGCUCGUCUUGG [salish99_S_TOV1_R5_063] (Eterna round: R97, puzzle: Sensor, turn-off variant 1) | 22 nM | – | 23 nM | – | – | –
17 | UCGUGUGCGUAGGAUAUCGGUAUGAAGGGAGAAUGAGAAGGGCGGACAUGAGGAUCACCCAUGUGUGCCGGAAA [EX6 B.4] (Eterna round: R97, puzzle: Exclusion 6) | 43.3 nM | – | 18 nM | – | – | –
18 | GCCUUAUCGGUCAGGAUAUACACCCGUCACUUGUUGUAGAAGGGACAUGAGGAUCACCCAUGUACAUUACAUUG [alecazam37] (Eterna round: R97, puzzle: Brourd's mod of Exclusion 4) | 31.3 nM | – | 26 nM | – | – | –

Row | Sequence | apparent KD of MS2 coat protein (input ligand: FMN 200 uM) | apparent KD of MS2 coat protein [1] | apparent KD of MS2 coat protein (input ligand: none) | apparent KD of MS2 coat protein [2] | apparent KD of MS2 coat protein [3] | apparent KD of MS2 coat protein [4]
19 | UUGACGGCAGGAUAUACAUGAGGAUCACCCAUGUAAAUUUUUCGUUUAACUUGAAUGUGUAGAAGGGCCAAACC [Ex3 #77] (Eterna round: R97, puzzle: Exclusion 3) | 19.4 nM | – | 20.4 nM | – | – | –
20 | UUUUAACAUGAGGAUCACCCAUGUGAGGAUAUCGAAAUUUAUAUUAAUAUUAUUUUUUCGAGAAGGCACAUUUU [JMF 49] (puzzle: Exclusion 1) | – | – | – | 148 nM | – | –
21 | AACAUGUUAGGAUAUGGUCCUGUGCCACAUGGAGGUUUAGGUUAGAAGGGACAUGAGGAUCACCCAUGUUAAAU [Eternabot (L2) Solution 39] (Eterna round: R97, puzzle: Exclusion 4) | 168 nM | – | 183 nM | – | – | –
22 | UUUUUAUAUGAAGGAUAUACUUAACAUGAGGAUCACCCAUGUGGUGUUGUGAGUGAGUGAGUUUAGUAGAAGGUCAAGUAUUUA [JMF's solution 41] (Eterna round: R96, puzzle: Exclusion NG 2) | 663 nM | 527 nM | 380 nM | – | – | –
23 | AGCUGUGGCCGAGGAUAUUCAGCCUUAAAUACCGACGUAUAGUCGGACAUGAGGAUCACCCAUGUGGAGAAGGCGGUCUCAGCA [Eli eng2 - 046] (Eterna round: R96, puzzle: Exclusion NG 2) | 76.4 nM | 34.5 nM | 48.4 nM | – | – | –
24 | GGAUUACAUGAGGAUCACCCAUGUGAGGAUAUCCCGACAGGUUGCAGAGAACCUCGUAGGAGAAGGCACAGGCG [EX1 B.12] (Eterna round: R97, puzzle: Exclusion 1) | 234 nM | – | 102 nM | – | – | –
25 | AAGGUACGAGGAUAUACAUAGAUACAGACACAUGUGCAUGUACAUGAGGAUCACCCAUGUAGAAGGCGUAUAUA [AJ 18] (Eterna round: R96, puzzle: Exclusion 2) | 248 nM | 50.2 nM | 51.8 nM | – | – | –
26 | AUCAGUCUAGAGGAUAUGCUGGAUUAAUAUCUGGCAGAAGGCUGGACAUGAGGAUCACCCAUGUAAAUACUACC [Omei Ex6 A4] (Eterna round: R97, puzzle: Exclusion 6) | 156 nM | – | 55 nM | – | – | –
27 | GAAAACGUAGGAUAUACGAAAAAAAAGGGUAGAAAAAAAACACAUGAGGAUCACCCAUGUAGAAGGACGAAAAG [salish99_ex2_r3_094] (puzzle: Exclusion 2) | – | – | – | 38.9 nM | 66.3 nM | 55.4 nM
28 | UAGCAGCGAGGAUAUACAGACAGGUCCAAUACGUGUCUUGGACUUGAGGAUCACCCAAGUAGAAGGCGCCACAG [salish99_ex2_r4_602] (Eterna round: R97, puzzle: Exclusion 2) | 104 nM | – | 62 nM | – | – | –
29 | GAAAUCGAAGGAUAUCCGGGUGUCCACAUGAGGAUCACCCAUGUACUGGCCAAUAGCCAGGGAGAAGGUCGCCCAA [EX5 A.3] (Eterna round: R97, puzzle: Exclusion 5) | 131 nM | – | 104 nM | – | – | –
30 | ACUCCUCCUGUUAGGAUAUGCAUCGGGCUUCCGCAGCAGAAGGAACAUGAGGAUCACCCAUGUCAAAUAAAAUC [Inxebexe] (Eterna round: R96, puzzle: Brourd's mod of Exclusion 4) | 153 nM | 20.7 nM | 26.9 nM | – | – | –
31 | CAAUUCAGAGGAUAUGCGCAUAGAUAAGACUUUUUUUCUUAACAUGAGGAUCACCCAUGUAGAAGGCUGUAACC [Ex2 #63] (Eterna round: R97, puzzle: Exclusion 2) | 19.8 nM | – | 18.2 nM | – | – | –
32 | GGCCCUAAGGUCAGAUUCACAAGCUUUUUGCUCGUUUUAACAUGAGGAUCACCCAUGUCUAGUGGAUCUGAUCCUCU [Sensor v3, turn-off variant 2 (MOD of Indiso v.1)] (puzzle: Sensor v3, turn-off variant 2) | – | – | – | 14.9 nM | 27.5 nM | 31.2 nM
33 | GAUACACAUGAGGAUCACCCAUGUGAGGAUAUGCGUACGUUGUCCGUAGGCGACGUGCGCAGAAGGCGCUUGGU [Mat - Mod of JL D98] (puzzle: Exclusion 1) | – | – | – | 57.3 nM | – | –
34 | UCUUCACAUGAGGAUCACCCAUGUCAGGAUAUAAGGUCUUGUCUACGUUGAAGGGACUUUAGAAGGGACACUUG [EX1 B.6] (Eterna round: R97, puzzle: Exclusion 1) | 107 nM | – | 36 nM | – | – | –
35 | AAAGGCUAAGGAUAUGCACACAUAAACAUGAGGAUCACCCAUGUGUUCCCAGCAACCAUAGCAGAAGGUAGCGAAA [Rarebeve] (puzzle: Exclusion 5) | – | – | – | 70.1 nM | 76.5 nM | 68.7 nM
